Here are results for one molecule from publication PMC5552228, “Mapping the contact surfaces in the Lamin A:AIMP3 complex by hydrogen/deuterium exchange FT-ICR mass spectrometry” (PLoS ONE, 2017).

For this assay, the target named is T1, His-Tev-AIMP3 (aminoacyl-tRNA synthetases-interacting multifunctional protein 3) (human, UniProt O43324 1-174).
T1 construct: also called AIMP3/p18; MSC p18; source: E. coli BL21 (DE3), pET28a, purified (Ni-HiTrap, desalting column); not shown: His6-Tev (6-his tag and Tobacco Etch Virus protease cutting site, aa1-22 of the construct), N-terminal, kept
T1 sequence (looked up): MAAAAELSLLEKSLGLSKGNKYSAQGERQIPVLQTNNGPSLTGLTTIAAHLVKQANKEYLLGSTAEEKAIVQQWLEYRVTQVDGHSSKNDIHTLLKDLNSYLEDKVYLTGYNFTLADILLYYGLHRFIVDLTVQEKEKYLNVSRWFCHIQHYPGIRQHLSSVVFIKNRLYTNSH
The experiment in a line: HDX-MS; AIMP3 and LmnA mixed in 1:1 ratio, 40 uM stock, 20 mM Hepes, 150 mM NaCl, pH 7.5, diluted into D2O; 0.5-240 min at 0.4 °C; protease type XIII digestion; LC-ESI 14.5 T FT-ICR MS; free against complexed protein. As to conditions: both partners purified.

B1: His-Strep-TrxA-LmnA (C-terminal part of Lamin A, 567-646) (domain or fragment, UniProt P02545 567-646, looked up)
chain: GSHCSSSGDPAEYNLRSRTVLCGTCGQPADKASASGSGAQVGGPISSGSSASSVTVTRSYRSVGGSGGGSFGDNLVTRSY
notes: C-terminal part of mature Lamin A, residues 567-646 by the methods (the results say aa567-647, 80 aa); ends in NLVTRSY (203-209 of the construct); also called LmnA C-terminus; LmnA (aa567-647); source: E. coli BL21 (DE3), pET28a, purified (as for AIMP3: Ni-HiTrap, desalting column); not shown: His, N-terminal, kept; Strep, N-terminal, kept; TrxA (thioredoxin), N-terminal, kept
Turning to B1, the binding result is listed as “binds”.
